Results reported in patent US9587002B2, “Sequence of nucleotides and peptides GSE 24.2 of dyskerin, which can induce telomerase activity, method for obtaining same, therapeutic compositions and applications thereof” (CONSEJO SUPERIOR DE INVESTIGACIONES CIENTIFICAS, priority 2005, dated 2017).
Entries after “also recorded” stand apart in the source; their conditions may differ.

Legend:
Type in all cases: cell-based, human
JNK = experiment: Activation of JNK by cisplatin in 293T cell lines (Western blot); settings: 293T cells stably expressing GSE 24.2 vs pLNCX; cisplatin 6 hours
Experimental: FIG. 2.—Cell viability and activation of the JNK and p38 death pathways in 293T cell lines: pLNCX and 24.2, treated with cisplatin. A) Cell viability. After seeding the 293T cells: expressing the empty vector (pLNCX) and GSE 24.2 (24.2) in 24-well plates, they were incubated with concentrations between 0-100 μg/ml of cisplatin. The cell viability was measured by means of the crystal violet technique after 72 hours of exposure to the drug. The data represent the mean of two experiments performed in quadruplicate. B) Activation kinetics. Subsequently, the activation of JNK and p38 was studied using antibodies that specifically recognise the active forms. As a load control, the levels of JNK-1 were detected.
The pLNCX24-2 plasmid containing GSE of the same name was transfected in a stable manner in the 293T cells and, as a control, the pLNCX empty vector was transfected. After verifying, by means of PCR, that the 24.2 cell line contained this insert (data not shown), the response to cisplatin was studied, creating a viability curve with this drug. […] JNK and p38 are MAPKs that are activated in response to genotoxic agents (Sanchez-Perez et al., 1998).
Western Blot and antibodies. 20 μg of protein were separated in SDS-polyacrylamide gels; subsequently, they were transferred to Immobilon-P membranes (Millipore) by humid transfer. […]

telomerase = experiment: Telomerase activity (TRAP) in cells of patients with dyskeratosis congenita; settings: DC-1, DC-2, DC-3 and carrier parent (DC-C) cells; 24 hours after transfection vs empty vector
Experimental: FIG. 10.—Telomerase activity and expression levels of hTERT and hTR in the cells of patients with dyskeratosis congenita and in VA13 cells transiently transfected with the 24.2 plasmid or the pLNCX empty vector. A) Telomerase activity measured by means of the TRAP assay in the cells of patients with dyskeratosis congenita (DC-1, DC-2 and DC-3) and in the carrier parent (DC-C) following electroporation of 45 μg of the pLNCX empty plasmid (−) or the pLNCX 24.2 vector (+) by 15 million cells. B) RT-PCR of the RNA from cells of one of the patients with dyskeratosis congenita, DC3 transfected with the empty vector and DC3 transfected with the 24.2 plasmid, using oligos specific for hTERT and hTR. As a starting RNA control, oligos for the amplification of GAPDH were used. C) Telomerase activity in VA13 cells. […] 24 hours later, the telomerase activity was analysed as described above, using dilutions of the protein extracts from each transfection. […] RNA levels were detected as described above. […] After 24 h of transfection, the luciferase activity was analyzed as described above. […]
Telomerase activity assay based on the TRAP method Wright et al., 1995). The telomerase activity was measured using the TRAPeze telomerase detection kit (Intergen) in accordance with the instruction manual. […]

hTERT = experiment: RT-PCR of hTERT in cells of patients with dyskeratosis congenita; settings: RT-PCR 24 hours after transfection
Experimental: FIG. 10.—Telomerase activity and expression levels of hTERT and hTR in the cells of patients with dyskeratosis congenita and in VA13 cells transiently transfected with the 24.2 plasmid or the pLNCX empty vector. A) Telomerase activity measured by means of the TRAP assay in the cells of patients with dyskeratosis congenita (DC-1, DC-2 and DC-3) and in the carrier parent (DC-C) following electroporation of 45 μg of the pLNCX empty plasmid (−) or the pLNCX 24.2 vector (+) by 15 million cells. B) RT-PCR of the RNA from cells of one of the patients with dyskeratosis congenita, DC3 transfected with the empty vector and DC3 transfected with the 24.2 plasmid, using oligos specific for hTERT and hTR. As a starting RNA control, oligos for the amplification of GAPDH were used. C) Telomerase activity in VA13 cells. The cells were transiently transfected with 16 μg of the control pLNCX empty vector, expressing DKC or the GSE 24.2 peptide per million cells. 24 hours later, the telomerase activity was analysed as described above, using dilutions of the protein extracts from each transfection. D) The expression levels of hTERT and hTR in VA13 cells transfected with 16 μg of the different construct per million cells. RNA levels were detected as described above. GAPDH was used as a control. […] After 24 h of transfection, the luciferase activity was analyzed as described above. […]

B1: GSE 24.2: 165-pb cDNA fragment (nucleotides 268 to 433) of human dyskerin, SEQ ID NO1, encoding peptide SEQ ID NO2, expressed from pLNCX plasmid (nucleic acid, listed as Homo sapiens)
DNA: GGTTTCATTAATCTTGACAAGCCCTCTAACCCCTCTTCCCATGAGGTGGTAGCCTGGATTCGACGGATACTTCGGGTGGAGAAGACAGGGCACAGTGGTACTCTGGATCCCAAGGTGACTGGTTGTTTAATCGTGTGCATAGAACGAGCCACTCGCTTGGTGAAG
modifications: expressed from pLNCX plasmid; CDS (1)..(165) Sequence GSE 24.2
dose of cisplatin required to activate JNK (JNK): a greater dose of cisplatin is required to activate both kinases | telomerase activity in dyskeratosis congenita cells (telomerase): an increase in telomerase activity was observed; also recorded: compensates for the defects in telomerase activity | hTERT expression levels in dyskeratosis congenita cells (hTERT): an increase in the expression levels was observed
